Test results from paper PMC10046250.
Where no end group is shown, it is not given here. [ ]: non-standard residue; d: D form. sY = N[C@@H](Cc1ccc(OS(=O)(=O)O)cc1)C(=O)O

Target: T1, mouse cholecystokinin 1 receptor (mouse (endogenous in isolated mouse pancreatic acini)) (UniProt O08786)
T1 sequence: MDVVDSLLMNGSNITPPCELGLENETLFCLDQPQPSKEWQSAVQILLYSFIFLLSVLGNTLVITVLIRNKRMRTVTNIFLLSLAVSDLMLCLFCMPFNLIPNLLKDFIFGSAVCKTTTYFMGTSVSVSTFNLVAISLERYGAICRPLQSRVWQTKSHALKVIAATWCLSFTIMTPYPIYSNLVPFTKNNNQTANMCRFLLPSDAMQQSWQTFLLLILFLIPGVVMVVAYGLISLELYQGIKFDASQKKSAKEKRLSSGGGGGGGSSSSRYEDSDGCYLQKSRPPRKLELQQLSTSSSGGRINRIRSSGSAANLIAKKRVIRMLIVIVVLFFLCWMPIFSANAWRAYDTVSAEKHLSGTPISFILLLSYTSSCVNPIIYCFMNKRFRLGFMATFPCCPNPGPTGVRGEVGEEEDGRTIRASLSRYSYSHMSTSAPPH

D[sY]MGWMDF-NH2 (ends and bridges not checked) [Sulfated cholecystokinin octapeptide] gave a CCK concentration needed to induce regular cytosolic calcium oscillations (Fura-2 imaging) in perifused isolated mouse pancreatic acini (data in Figure S1) of 10 pM.
